Consider 27 molecules from patent US20040038876A1 (published 2004).

This assay concerns the target T1, Shh receptor molecules on C3H10T1/2 cells (UniProt Q61115 1-1434).
T1 sequence (looked up): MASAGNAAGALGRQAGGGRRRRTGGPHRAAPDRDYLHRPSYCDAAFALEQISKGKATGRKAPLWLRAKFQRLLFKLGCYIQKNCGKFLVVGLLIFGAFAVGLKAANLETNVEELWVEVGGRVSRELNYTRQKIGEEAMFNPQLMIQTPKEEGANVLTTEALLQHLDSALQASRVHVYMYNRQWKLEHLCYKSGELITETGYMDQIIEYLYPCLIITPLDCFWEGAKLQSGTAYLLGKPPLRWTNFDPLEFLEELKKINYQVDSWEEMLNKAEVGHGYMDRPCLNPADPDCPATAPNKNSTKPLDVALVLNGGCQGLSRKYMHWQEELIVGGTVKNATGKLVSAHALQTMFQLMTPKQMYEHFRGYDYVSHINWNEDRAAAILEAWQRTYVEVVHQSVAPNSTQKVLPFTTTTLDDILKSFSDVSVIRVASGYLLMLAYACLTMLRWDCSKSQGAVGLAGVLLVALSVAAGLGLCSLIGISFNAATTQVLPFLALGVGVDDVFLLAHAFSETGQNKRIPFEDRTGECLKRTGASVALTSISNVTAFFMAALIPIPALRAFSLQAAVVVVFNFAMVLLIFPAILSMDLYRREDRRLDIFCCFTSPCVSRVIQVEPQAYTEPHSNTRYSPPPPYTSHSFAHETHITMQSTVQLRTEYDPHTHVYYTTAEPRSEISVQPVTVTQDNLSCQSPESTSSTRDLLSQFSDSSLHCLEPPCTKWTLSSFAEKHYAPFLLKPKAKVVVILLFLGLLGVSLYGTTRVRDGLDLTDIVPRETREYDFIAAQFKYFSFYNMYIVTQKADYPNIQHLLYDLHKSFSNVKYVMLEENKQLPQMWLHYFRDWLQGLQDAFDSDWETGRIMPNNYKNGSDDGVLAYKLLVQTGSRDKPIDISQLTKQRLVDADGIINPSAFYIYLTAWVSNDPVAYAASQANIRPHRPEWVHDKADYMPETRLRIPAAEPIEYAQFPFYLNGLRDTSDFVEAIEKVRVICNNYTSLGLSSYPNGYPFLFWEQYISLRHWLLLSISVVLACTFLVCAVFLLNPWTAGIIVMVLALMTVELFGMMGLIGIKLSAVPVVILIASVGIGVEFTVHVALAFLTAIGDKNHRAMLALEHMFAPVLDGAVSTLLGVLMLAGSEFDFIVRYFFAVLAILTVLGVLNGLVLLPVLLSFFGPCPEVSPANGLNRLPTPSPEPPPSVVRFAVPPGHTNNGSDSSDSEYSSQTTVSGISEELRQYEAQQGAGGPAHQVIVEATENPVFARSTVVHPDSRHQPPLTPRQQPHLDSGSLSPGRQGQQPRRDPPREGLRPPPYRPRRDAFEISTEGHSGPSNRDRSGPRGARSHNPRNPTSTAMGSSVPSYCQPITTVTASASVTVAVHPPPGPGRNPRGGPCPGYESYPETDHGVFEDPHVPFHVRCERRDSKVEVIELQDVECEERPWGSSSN
The experiment in a line: cell-based or functional assay.

B1: mutant 20 (Shh C1II/A169C + N68C), unmodified (ligand)
chain: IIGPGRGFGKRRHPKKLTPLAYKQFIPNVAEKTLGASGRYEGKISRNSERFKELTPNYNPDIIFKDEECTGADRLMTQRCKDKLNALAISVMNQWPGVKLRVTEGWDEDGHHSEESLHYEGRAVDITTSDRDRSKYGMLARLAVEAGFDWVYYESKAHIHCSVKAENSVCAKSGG
For B1, the “Potency (IC50) in C3H10T1/2 assay (alkaline phosphatase induction)” value (shortened to “Potency (IC50) in C3H10T1/2 assay”) is 0.3 µg/mL.

B2: mutant 19 (Shh C1II/A169C + Y57C), 5 K PEG (ligand)
chain: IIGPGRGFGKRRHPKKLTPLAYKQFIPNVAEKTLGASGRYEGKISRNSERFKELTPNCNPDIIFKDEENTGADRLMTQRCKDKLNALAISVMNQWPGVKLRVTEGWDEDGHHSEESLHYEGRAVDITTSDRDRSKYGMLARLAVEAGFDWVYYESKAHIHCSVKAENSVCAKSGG
modifications: 5 K PEG maleimide on thiol of Cys57, Cys169
As to B2, the “Potency (IC50) in C3H10T1/2 assay” value was determined as 0.2 µg/mL.

B3: mutant 21 (Shh C1II/A169C + N92C), unmodified (ligand)
chain: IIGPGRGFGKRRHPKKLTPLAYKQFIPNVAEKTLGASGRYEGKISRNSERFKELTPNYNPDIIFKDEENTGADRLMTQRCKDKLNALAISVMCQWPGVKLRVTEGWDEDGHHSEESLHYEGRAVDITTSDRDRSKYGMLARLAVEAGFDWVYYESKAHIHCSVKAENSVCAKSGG
For B3, the “Potency (IC50) in C3H10T1/2 assay” value worked out at 1.5 µg/mL.

B4: mutant 25 (Shh C1II/A169C + S133C), HPE-modified (ligand)
chain: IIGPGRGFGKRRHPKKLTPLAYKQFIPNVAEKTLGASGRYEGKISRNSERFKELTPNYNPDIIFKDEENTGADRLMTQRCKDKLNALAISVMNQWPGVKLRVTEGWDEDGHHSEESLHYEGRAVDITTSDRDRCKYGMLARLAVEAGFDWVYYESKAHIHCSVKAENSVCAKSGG
modifications: beta-(4-hydroxyphenyl) ethylmaleimide on thiol of Cys133, Cys169
Take B4: the “Potency (IC50) in C3H10T1/2 assay” value came out at 0.2 µg/mL.

B5: mutant 20 (Shh C1II/A169C + N68C), 5 K PEG (ligand)
chain: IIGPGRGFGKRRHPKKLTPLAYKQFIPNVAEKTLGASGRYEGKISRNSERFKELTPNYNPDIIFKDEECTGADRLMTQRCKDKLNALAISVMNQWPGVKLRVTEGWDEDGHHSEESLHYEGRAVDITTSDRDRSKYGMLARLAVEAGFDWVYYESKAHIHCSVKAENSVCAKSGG
modifications: 5 K PEG maleimide on thiol of Cys68, Cys169
Consider B5, for which the “Potency (IC50) in C3H10T1/2 assay” value is 0.2 µg/mL.

B6: mutant 21 (Shh C1II/A169C + N92C), NEM-modified (ligand)
chain: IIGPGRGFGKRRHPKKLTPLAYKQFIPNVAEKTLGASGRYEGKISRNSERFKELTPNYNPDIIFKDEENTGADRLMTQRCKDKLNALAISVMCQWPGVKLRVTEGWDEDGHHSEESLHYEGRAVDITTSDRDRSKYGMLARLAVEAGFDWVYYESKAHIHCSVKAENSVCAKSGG
modifications: N-ethyl maleimide on thiol of Cys92, Cys169
Take B6: the “Potency (IC50) in C3H10T1/2 assay” value worked out at 2 µg/mL.

B7: mutant 22 (Shh C1II/A169C + S154C), Napth-modified (ligand)
chain: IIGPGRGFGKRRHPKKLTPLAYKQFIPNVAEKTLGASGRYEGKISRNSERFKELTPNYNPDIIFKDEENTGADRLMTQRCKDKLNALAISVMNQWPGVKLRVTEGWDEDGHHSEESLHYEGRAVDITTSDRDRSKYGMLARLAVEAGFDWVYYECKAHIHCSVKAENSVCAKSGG
modifications: N-(1-naphthyl) maleimide on thiol of Cys154, Cys169
As for B7, the “Potency (IC50) in C3H10T1/2 assay” value came out at 2 µg/mL.

B8: mutant 21 (Shh C1II/A169C + N92C), HPE-modified (ligand)
chain: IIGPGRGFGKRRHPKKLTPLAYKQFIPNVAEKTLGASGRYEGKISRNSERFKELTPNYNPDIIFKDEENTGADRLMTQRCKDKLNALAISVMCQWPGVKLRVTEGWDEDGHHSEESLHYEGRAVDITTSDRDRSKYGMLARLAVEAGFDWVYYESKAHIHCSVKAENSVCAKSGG
modifications: beta-(4-hydroxyphenyl) ethylmaleimide on thiol of Cys92, Cys169
For B8, the “Potency (IC50) in C3H10T1/2 assay” value was found to be 2 µg/mL.

B9: mutant 19 (Shh C1II/A169C + Y57C), Napth-modified (ligand)
chain: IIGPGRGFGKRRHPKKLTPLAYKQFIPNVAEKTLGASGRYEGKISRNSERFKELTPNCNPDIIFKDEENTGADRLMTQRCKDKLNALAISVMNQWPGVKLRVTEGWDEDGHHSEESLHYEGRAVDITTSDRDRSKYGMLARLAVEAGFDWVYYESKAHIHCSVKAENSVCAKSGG
modifications: N-(1-naphthyl) maleimide on thiol of Cys57, Cys169
As for B9, the “Potency (IC50) in C3H10T1/2 assay” value turned out to be 0.2 µg/mL.

B10: mutant 22 (Shh C1II/A169C + S154C), 5 K PEG (ligand)
chain: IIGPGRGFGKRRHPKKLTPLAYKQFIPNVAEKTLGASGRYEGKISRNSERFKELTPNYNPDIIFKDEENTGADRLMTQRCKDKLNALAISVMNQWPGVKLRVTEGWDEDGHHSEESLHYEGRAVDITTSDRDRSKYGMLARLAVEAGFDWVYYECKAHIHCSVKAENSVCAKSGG
modifications: 5 K PEG maleimide on thiol of Cys154, Cys169
As for B10, the “Potency (IC50) in C3H10T1/2 assay” value came out at 5 µg/mL.

B11: mutant 24 (Shh C1II/A169C + S112C), 5 K PEG (ligand)
chain: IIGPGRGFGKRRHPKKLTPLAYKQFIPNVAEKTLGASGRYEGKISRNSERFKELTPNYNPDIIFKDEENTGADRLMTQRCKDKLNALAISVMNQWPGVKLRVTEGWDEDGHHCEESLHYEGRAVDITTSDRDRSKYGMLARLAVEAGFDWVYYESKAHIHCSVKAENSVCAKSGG
modifications: 5 K PEG maleimide on thiol of Cys112, Cys169
For the molecule B11, the “Potency (IC50) in C3H10T1/2 assay” value came to 0.6 µg/mL.

B12: mutant 25 (Shh C1II/A169C + S133C), unmodified (ligand)
chain: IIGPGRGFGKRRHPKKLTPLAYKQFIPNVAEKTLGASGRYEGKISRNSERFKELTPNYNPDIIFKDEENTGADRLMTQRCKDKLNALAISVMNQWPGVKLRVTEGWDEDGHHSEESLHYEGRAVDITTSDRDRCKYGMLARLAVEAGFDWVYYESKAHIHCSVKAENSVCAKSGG
B12: the “Potency (IC50) in C3H10T1/2 assay” value stood at 0.4 µg/mL.

B13: mutant 23 (Shh C1II/A169C + K82C), unmodified (ligand)
chain: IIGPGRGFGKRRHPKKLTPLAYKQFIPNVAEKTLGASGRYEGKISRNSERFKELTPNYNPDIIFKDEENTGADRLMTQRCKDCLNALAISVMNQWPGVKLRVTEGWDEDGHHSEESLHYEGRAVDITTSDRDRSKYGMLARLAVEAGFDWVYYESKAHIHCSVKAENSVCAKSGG
As for B13, the “Potency (IC50) in C3H10T1/2 assay” value came out at 0.2 µg/mL.

B14: mutant 18 (Shh C1II/A169C + N46C), unmodified (ligand)
chain: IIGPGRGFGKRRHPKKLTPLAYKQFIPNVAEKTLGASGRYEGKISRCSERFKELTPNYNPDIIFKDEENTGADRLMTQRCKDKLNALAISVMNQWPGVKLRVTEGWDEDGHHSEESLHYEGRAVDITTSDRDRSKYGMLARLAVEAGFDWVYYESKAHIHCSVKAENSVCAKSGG
Turning to B14, the “Potency (IC50) in C3H10T1/2 assay” value came to 0.4 µg/mL.

B15: mutant 18 (Shh C1II/A169C + N46C), Napth-modified (ligand)
chain: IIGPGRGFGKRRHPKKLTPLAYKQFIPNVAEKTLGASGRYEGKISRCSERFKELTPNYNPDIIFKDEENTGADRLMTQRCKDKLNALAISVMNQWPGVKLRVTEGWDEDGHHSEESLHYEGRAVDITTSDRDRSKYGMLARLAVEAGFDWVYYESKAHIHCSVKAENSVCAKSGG
modifications: N-(1-naphthyl) maleimide on thiol of Cys46, Cys169
With B15, the “Potency (IC50) in C3H10T1/2 assay” value worked out at 0.4 µg/mL.

B16: mutant 21 (Shh C1II/A169C + N92C), 20 K PEG (ligand)
chain: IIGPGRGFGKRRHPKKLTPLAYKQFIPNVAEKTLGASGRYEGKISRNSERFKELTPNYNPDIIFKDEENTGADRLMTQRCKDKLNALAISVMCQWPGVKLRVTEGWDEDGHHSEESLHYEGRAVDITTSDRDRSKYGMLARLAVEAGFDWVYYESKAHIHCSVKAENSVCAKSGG
modifications: 20 K PEG maleimide on thiol of Cys92, Cys169
Turning to B16, the “Potency (IC50) in C3H10T1/2 assay” value is > 20 µg/mL.

B17: mutant 20 (Shh C1II/A169C + N68C), Pyrene-modified (ligand)
chain: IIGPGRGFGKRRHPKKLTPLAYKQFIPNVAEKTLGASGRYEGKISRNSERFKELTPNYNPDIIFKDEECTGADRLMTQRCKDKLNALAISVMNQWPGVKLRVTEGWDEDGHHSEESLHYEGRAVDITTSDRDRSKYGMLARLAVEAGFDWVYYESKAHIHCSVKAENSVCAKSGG
modifications: N-(1-pyrenyl) maleimide on thiol of Cys68, Cys169
On to B17, for which the “Potency (IC50) in C3H10T1/2 assay” value worked out at 0.3 µg/mL.

B18: mutant 17 (Shh C1II/A169C + N27C), Napth-modified (ligand)
chain: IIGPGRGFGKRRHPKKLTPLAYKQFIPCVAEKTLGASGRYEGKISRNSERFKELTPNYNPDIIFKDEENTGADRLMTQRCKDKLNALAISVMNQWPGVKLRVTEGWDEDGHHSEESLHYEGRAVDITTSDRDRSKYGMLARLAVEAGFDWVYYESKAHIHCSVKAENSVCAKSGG
modifications: N-(1-naphthyl) maleimide on thiol of Cys27, Cys169
For B18, the “Potency (IC50) in C3H10T1/2 assay” value was determined as 1.5 µg/mL.

B19: mutant 19 (Shh C1II/A169C + Y57C), HPE-modified (ligand)
chain: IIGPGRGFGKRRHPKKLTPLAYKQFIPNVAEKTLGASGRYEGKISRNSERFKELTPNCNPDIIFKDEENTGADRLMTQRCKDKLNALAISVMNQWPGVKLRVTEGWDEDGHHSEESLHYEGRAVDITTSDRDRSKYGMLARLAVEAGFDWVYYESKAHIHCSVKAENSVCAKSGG
modifications: beta-(4-hydroxyphenyl) ethylmaleimide on thiol of Cys57, Cys169
Regarding B19, the “Potency (IC50) in C3H10T1/2 assay” value is 0.3 µg/mL.

B20: mutant 24 (Shh C1II/A169C + S112C), unmodified (ligand)
chain: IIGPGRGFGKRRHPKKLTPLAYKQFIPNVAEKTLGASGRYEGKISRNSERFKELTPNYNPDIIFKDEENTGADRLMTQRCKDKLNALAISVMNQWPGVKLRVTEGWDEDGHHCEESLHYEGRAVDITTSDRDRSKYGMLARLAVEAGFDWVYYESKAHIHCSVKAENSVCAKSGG
In the case of B20, the “Potency (IC50) in C3H10T1/2 assay” value was determined as 0.4 µg/mL.

B21: mutant 24 (Shh C1II/A169C + S112C), Pyrene-modified (ligand)
chain: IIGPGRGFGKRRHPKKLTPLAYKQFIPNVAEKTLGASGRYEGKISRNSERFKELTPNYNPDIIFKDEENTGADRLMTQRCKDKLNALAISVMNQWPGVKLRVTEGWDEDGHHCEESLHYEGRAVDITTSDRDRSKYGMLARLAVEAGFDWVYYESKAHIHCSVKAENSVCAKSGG
modifications: N-(1-pyrenyl) maleimide on thiol of Cys112, Cys169
With B21, the “Potency (IC50) in C3H10T1/2 assay” value was 0.25 µg/mL.

B22: mutant 18 (Shh C1II/A169C + N46C), 20 K PEG (ligand)
chain: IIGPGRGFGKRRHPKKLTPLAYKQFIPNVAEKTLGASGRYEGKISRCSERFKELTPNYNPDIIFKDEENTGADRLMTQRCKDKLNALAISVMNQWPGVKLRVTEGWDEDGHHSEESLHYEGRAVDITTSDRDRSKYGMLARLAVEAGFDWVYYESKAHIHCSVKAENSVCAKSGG
modifications: 20 K PEG maleimide on thiol of Cys46, Cys169
Regarding B22, the “Potency (IC50) in C3H10T1/2 assay” value is 0.3 µg/mL.

B23: mutant 22 (Shh C1II/A169C + S154C), NEM-modified (ligand)
chain: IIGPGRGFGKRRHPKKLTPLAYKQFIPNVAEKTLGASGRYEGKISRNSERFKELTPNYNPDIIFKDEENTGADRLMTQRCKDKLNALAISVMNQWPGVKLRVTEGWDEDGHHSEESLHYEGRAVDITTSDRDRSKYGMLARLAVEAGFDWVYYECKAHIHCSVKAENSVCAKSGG
modifications: N-ethyl maleimide on thiol of Cys154, Cys169
As to B23, the “Potency (IC50) in C3H10T1/2 assay” value is 2 µg/mL.

B24: mutant 17 (Shh C1II/A169C + N27C), HPE-modified (ligand)
chain: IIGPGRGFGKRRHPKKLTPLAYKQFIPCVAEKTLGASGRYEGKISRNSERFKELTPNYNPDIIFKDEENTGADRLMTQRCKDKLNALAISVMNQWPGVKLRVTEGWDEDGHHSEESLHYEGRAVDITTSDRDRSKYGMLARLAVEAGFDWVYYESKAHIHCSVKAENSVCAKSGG
modifications: beta-(4-hydroxyphenyl) ethylmaleimide on thiol of Cys27, Cys169
Regarding B24, the “Potency (IC50) in C3H10T1/2 assay” value came out at 0.5 µg/mL.

B25: mutant 25 (Shh C1II/A169C + S133C), NEM-modified (ligand)
chain: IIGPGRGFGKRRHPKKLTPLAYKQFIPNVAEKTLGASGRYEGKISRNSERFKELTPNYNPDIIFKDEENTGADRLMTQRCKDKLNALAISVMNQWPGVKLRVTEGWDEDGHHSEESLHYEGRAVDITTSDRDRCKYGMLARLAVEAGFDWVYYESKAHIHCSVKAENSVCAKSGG
modifications: N-ethyl maleimide on thiol of Cys133, Cys169
With B25, the “Potency (IC50) in C3H10T1/2 assay” value is 0.2 µg/mL.

B26: mutant 17 (Shh C1II/A169C + N27C), 5 K PEG (ligand)
chain: not shown
modifications: 5 K PEG maleimide on thiol of Cys27, Cys169
As for B26, the “Potency (IC50) in C3H10T1/2 assay” value stood at 4 µg/mL.

B27: mutant 19 (Shh C1II/A169C + Y57C), Pyrene-modified (ligand)
chain: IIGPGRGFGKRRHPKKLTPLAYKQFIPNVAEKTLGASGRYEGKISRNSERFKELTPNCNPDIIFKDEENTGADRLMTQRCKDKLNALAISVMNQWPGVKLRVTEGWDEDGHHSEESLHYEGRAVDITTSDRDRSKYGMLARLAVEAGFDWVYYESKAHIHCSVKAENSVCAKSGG
modifications: N-(1-pyrenyl) maleimide on thiol of Cys57, Cys169
Turning to B27, the “Potency (IC50) in C3H10T1/2 assay” value is 0.3 µg/mL.
